Results on one substance are retold here after article PMC9947420.

The target in this assay is GST-tagged PEX5-binding domain of X. laevis PEX14 (amino acids 19-78) (Xenopus laevis). The experiment in a line: SEC; Superdex 200 HiLoad 26/600 PG, XBHS buffer with 1 mM DTT; retention volume between 180 and 190 mL.

As a reminder, the stoichiometry N is the number of molecules, sites or subunits per partner or assembly. As for “GST-tagged PEX5-binding domain of X. laevis PEX14 (amino acids 19-78) (domain or fragment)”, the stoichiometry N came to 2.
